# Results as given in article PMC12416549 (2024).
# Residue numbers refer to the chain shown, from its start. Numbers in names are those of the source.
# T1: TNFR1 (Homo sapiens, UniProt P19438)
# T1 chain: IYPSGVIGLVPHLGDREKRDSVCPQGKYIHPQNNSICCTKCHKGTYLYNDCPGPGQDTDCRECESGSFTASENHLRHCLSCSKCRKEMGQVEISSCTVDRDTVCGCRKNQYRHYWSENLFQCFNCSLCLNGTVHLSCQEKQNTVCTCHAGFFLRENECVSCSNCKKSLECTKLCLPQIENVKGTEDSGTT
# B1: E92L (designed binder)
# chain: SMEEEVEKAAKEYEKKKKEAIEKHLEKLKAKDKEAAERFLKELEEAAKEYAKDEAKTMSEEEAKRRAKKYKEKVLLSELSEEEQKEIKEAELKLVRTILKYVEEAAK
# B2: K68L (designed binder)
# chain: B1 chain with K68L, L92E
# B3: V95W (designed binder)
# chain: B1 chain with L92E, V95W
# B4: L25H (designed binder)
# chain: B1 chain with L25H, L92E
# B5: E103I (designed binder)
# chain: B1 chain with L92E, E103I
# B6: E83S (designed binder)
# chain: B1 chain with E83S, L92E
# B7: Y50V (designed binder)
# chain: B1 chain with Y50V, L92E
# B8: L28C (designed binder)
# chain: B1 chain with L28C, L92E
# B9: I21Y (designed binder)
# chain: B1 chain with I21Y, L92E
# B10: K16E (designed binder)
# chain: B1 chain with K16E, L92E
# B11: E42H (designed binder)
# chain: B1 chain with E42H, L92E
# B12: L75K (designed binder)
# chain: B1 chain with L75K, L92E
# B13: S77I (designed binder)
# chain: B1 chain with S77I, L92E
# B14: V6Q (designed binder)
# chain: B1 chain with V6Q, L92E
# B15: A51M (designed binder)
# chain: B1 chain with A51M, L92E
# B16: K52V (designed binder)
# chain: B1 chain with K52V, L92E
# B17: K29F (designed binder)
# chain: B1 chain with K29F, L92E
# B18: E37C (designed binder)
# chain: B1 chain with E37C, L92E
# B19: L25W (designed binder)
# chain: B1 chain with L25W, L92E
# B20: Y13M (designed binder)
# chain: B1 chain with Y13M, L92E
# B21: S1W (designed binder)
# chain: B1 chain with S1W, L92E
# B22: K29E (designed binder)
# chain: B1 chain with K29E, L92E
# B23: A106I (designed binder)
# chain: B1 chain with L92E, A106I
# B24: L79V (designed binder)
# chain: B1 chain with L79V, L92E
# B25: K15E (designed binder)
# chain: B1 chain with K15E, L92E
# B26: A36K (designed binder)
# chain: B1 chain with A36K, L92E
# B27: Y13C (designed binder)
# chain: B1 chain with Y13C, L92E
# B28: V95C (designed binder)
# chain: B1 chain with L92E, V95C
# B29: K64L (designed binder)
# chain: B1 chain with K64L, L92E
# B30: E104R (designed binder)
# chain: B1 chain with L92E, E104R
# B31: Y101L (designed binder)
# chain: B1 chain with L92E, Y101L
# B32: E42C (designed binder)
# chain: B1 chain with E42C, L92E
# B33: K33L (designed binder)
# chain: B1 chain with K33L, L92E
# B34: L99F (designed binder)
# chain: B1 chain with L92E, L99F
# B35: M58K (designed binder)
# chain: B1 chain with M58K, L92E
# B36: A30Y (designed binder)
# chain: B1 chain with A30Y, L92E
# B37: A20P (designed binder)
# chain: B1 chain with A20P, L92E
# B38: V74L (designed binder)
# chain: B1 chain with V74L, L92E
# B39: K16C (designed binder)
# chain: B1 chain with K16C, L92E
# B40: V102L (designed binder)
# chain: B1 chain with L92E, V102L
# B41: E78N (designed binder)
# chain: B1 chain with E78N, L92E
# B42: E7A (designed binder)
# chain: B1 chain with E7A, L92E
# B43: E54K (designed binder)
# chain: B1 chain with E54K, L92E
# B44: S77E (designed binder)
# chain: B1 chain with S77E, L92E
# B45: V6G (designed binder)
# chain: B1 chain with V6G, L92E
# B46: L25D (designed binder)
# chain: B1 chain with L25D, L92E
# B47: K85F (designed binder)
# chain: B1 chain with K85F, L92E
# B48: A63Q (designed binder)
# chain: B1 chain with A63Q, L92E
# B49: K48F (designed binder)
# chain: B1 chain with K48F, L92E
# B50: K56T (designed binder)
# chain: B1 chain with K56T, L92E
# B51: E83A (designed binder)
# chain: B1 chain with E83A, L92E
# B52: R65A (designed binder)
# chain: B1 chain with R65A, L92E
# B53: K16G (designed binder)
# chain: B1 chain with K16G, L92E
# B54: K56A (designed binder)
# chain: B1 chain with K56A, L92E
# B55: L94M (designed binder)
# chain: B1 chain with L92E, L94M
# B56: F39C (designed binder)
# chain: B1 chain with F39C, L92E
# B57: A35G (designed binder)
# chain: B1 chain with A35G, L92E
# B58: V74H (designed binder)
# chain: B1 chain with V74H, L92E
# B59: A9C (designed binder)
# chain: B1 chain with A9C, L92E
# Target: T1, TNFR1
# Test: yeast display SC50
row,apparent Kd (screen),Binder
1,10.4 nM,B1
2,2.73 nM,B2
3,13.8 nM,B3
4,0.49 nM,B4
5,0.539 nM,B5
6,0.869 nM,B6
7,0.0802 nM,B7
8,0.49 nM,B8
9,0.446 nM,B9
10,1.54 nM,B10
11,5.84 nM,B11
12,1.69 nM,B12
13,11.4 nM,B13
14,6.43 nM,B14
15,0.49 nM,B15
16,0.956 nM,B16
17,1.05 nM,B17
18,0.49 nM,B18
19,0.446 nM,B19
20,0.593 nM,B20

row,apparent Kd (screen),Binder
1,3.63 nM,B21
2,0.869 nM,B22
3,5.84 nM,B23
4,1.27 nM,B24
5,0.869 nM,B25
6,0.49 nM,B26
7,1.27 nM,B27
8,11.4 nM,B28
9,0.446 nM,B29
10,0.446 nM,B30
11,0.405 nM,B31
12,22.2 nM,B32
13,0.653 nM,B33
14,9.41 nM,B34
15,16.7 nM,B35
16,0.446 nM,B36
17,3.63 nM,B37
18,0.49 nM,B38
19,1.05 nM,B39
20,3 nM,B40

row,apparent Kd (screen),Binder
1,2.73 nM,B41
2,3.63 nM,B42
3,8.56 nM,B43
4,0.869 nM,B44
5,2.48 nM,B45
6,2.73 nM,B46
7,0.539 nM,B47
8,1.4 nM,B48
9,0.593 nM,B49
10,3 nM,B50
11,0.405 nM,B51
12,1.27 nM,B52
13,0.49 nM,B53
14,3 nM,B54
15,1.86 nM,B55
16,5.31 nM,B56
17,1.16 nM,B57
18,6.43 nM,B58
19,0.446 nM,B59
